Test [1] has as its target T1, mouse LRRC33 (mouse, UniProt Q8BMT4 20-693, limits assumed).
T1 construct: also called mouse LRRC33 complexes
T1 sequence (looked up): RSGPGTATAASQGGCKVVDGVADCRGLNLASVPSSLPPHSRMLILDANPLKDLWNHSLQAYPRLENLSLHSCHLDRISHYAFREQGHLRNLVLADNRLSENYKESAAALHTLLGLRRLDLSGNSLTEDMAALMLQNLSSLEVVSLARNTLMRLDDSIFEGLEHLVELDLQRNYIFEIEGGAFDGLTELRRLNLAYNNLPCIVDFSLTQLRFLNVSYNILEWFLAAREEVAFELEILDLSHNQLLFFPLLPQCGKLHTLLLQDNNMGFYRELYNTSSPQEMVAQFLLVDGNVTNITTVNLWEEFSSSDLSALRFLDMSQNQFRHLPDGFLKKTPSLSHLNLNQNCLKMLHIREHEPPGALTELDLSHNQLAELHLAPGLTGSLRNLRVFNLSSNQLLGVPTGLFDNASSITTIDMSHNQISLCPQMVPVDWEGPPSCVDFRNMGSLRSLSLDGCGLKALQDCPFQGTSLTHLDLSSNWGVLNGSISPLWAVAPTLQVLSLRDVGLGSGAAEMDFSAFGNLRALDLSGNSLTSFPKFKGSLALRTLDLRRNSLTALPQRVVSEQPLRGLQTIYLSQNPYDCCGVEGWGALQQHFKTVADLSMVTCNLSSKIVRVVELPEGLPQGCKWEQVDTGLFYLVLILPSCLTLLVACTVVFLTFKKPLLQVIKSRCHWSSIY
Description: immunoprecipitation from 293T transfectant lysates, blot.

Test [2] deals with T2, human Glycoprotein A Repetitions Predominant (GARP) (human, UniProt Q14392 20-662).
T2 construct: whole, on cells; tested in cell lysates; also called LRRC32; FLAG-tagged GARP
T2 sequence (looked up): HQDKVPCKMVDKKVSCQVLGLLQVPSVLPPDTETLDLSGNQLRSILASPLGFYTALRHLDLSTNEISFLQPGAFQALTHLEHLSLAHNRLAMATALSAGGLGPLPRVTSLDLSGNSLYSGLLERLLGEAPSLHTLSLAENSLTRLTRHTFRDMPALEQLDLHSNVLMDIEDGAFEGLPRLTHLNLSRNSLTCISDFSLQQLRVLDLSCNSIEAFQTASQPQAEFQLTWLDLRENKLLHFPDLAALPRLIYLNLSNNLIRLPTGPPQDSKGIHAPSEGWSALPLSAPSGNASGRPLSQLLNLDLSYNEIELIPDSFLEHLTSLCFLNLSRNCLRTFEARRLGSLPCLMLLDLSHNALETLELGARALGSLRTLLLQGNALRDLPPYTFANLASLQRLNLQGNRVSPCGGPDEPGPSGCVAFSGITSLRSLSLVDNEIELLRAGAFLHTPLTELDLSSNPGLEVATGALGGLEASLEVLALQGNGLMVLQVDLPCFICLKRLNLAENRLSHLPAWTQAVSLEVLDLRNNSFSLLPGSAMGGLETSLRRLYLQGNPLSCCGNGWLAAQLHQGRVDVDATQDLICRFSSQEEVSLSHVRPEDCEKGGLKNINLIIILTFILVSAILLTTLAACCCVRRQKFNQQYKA
Description: immunoprecipitation from L1.2 transfectant lysates, blot. The procedure:
Cell surface expression of FLAG-LRRC33, FLAG-33-32-X1, and FLAG-33-32-X5 were measured using FACS. Numbers show the MFI (mean fluorescence intensity). (B, C) The specificity of anti-LRRC33 antibody.
Anti-LRRC33 mAb was generated by immunizing Lac33^{-/-} mice with L1.2 cells that stably express the 33-32-X1 chimera on the cell surface. Hybridoma supernatants were screened by immunofluorescence flow cytometry (FACS) and an LRRC33 positive hybridoma was identified. This anti-LRRC33 mAb only recognizes human LRRC33, not GARP, in L1.2 transfectants by immunoprecipitates (IP) (FIG. 8B, line 2, 3).
After 48 hours of transfection, cells were collected and lysed in IP lysis buffer (50 mM Tris pH7.4, 150 mM NaCl, 2 mM EDTA, 1% NP-40), which was supplemented with a protease inhibitor cocktail (Roche) and subjected to western blot analysis or were used for immunoprecipitation with the indicated antibody. Performed as described previously {Wang et al, 2012}. L1.2 cells were transfected with indicated plasmid using electroporation. […]

B1: anti-LRRC33 monoclonal antibody (mAb) (antibody, V domains shown)
VH: EFQLQQSGPELVKPGASVKMSCKASGYSFTDSYMDWVKQSNGKTLEWIGLINPKYGTTTYNQKFKGKATLTVDQSSSTAYMQLNSLTSEDSAVYFCASLYYDYSAWFAYWGQGTLVTVSA
VL: QAVVTQESALTTSPGETVTLTCRSSTGAVTTSNYANWVQEKPDHLFTGLIGGTNNRAPGVPARFSGSLIGDKAALIITGAQTEDEAIYFCGLWFSNRWVFGGGTKLTVV
notes: Mouse hybridoma mAb raised in Lrrc33-/- mice against L1.2 cells expressing the 33-32-X1 chimera; also called anti-LRRC33 mAb; anti-LRRC33 antibody
With B1, the binding result in test [1] and in test [2] was “no binding” each time.

The values above are taken from US20190270798A1 (CHILDREN S MEDICAL CENTER, published 2019).
